From publication PMC3036151, “Cloning and endogenous expression of a Eucalyptus grandis UDP-glucose dehydrogenase cDNA” (Genetics and Molecular Biology, 2010)

Experiments:
purified protein [1] = substrate: NC(=O)c1ccc[n+]([C@@H]2O[C@H](COP(=O)(O)OP(=O)(O)OC[C@H]3O[C@@H](n4cnc5c(N)ncnc54)[C@H](O)[C@@H]3O)[C@@H](O)[C@H]2O)c1; test: purified protein; type: biochemical, Eucalyptus grandis; settings: UDP-glucose saturating (1 mM), 20 mM Tris-HCl pH 8.0, 2 mM MgCl2, 30 °C, panel letters in text and Figure 3 caption are swapped, varied: cofactor
purified protein [2] = substrate: O=c1ccn([C@@H]2O[C@H](CO[P@@](=O)(O)O[P@@](=O)(O)O[C@H]3O[C@H](CO)[C@@H](O)[C@H](O)[C@H]3O)[C@@H](O)[C@H]2O)c(=O)[nH]1; test: purified protein; type: biochemical, Eucalyptus grandis; settings: NAD+ saturating (1 mM), 20 mM Tris-HCl pH 8.0, 2 mM MgCl2, 30 °C, panel letters in text and Figure 3 caption are swapped

B1: UDP-glucose dehydrogenase (UGDH), Poly-His-Tagged eucalyptus UDP-GDH, UDP-GlucDH (Eucalyptus grandis) (protein)
chain: MVKICCIGAGYVGGPTMAVIALKCPSVEVAVVDISVSRIQAWNSEQLPIYEPGLDAVVKQCRGKNLFFSTDVEKHVFEADIVFVSVNTPTKTRGLGAGKAADLTYWESAARMIADVSKSDKIVVEKSTVPVKTAEAIEKILTHNSKGIKFQILSNPEFLAEGTAIQDLFAPDRVLIGGRETPEGQKAIQTLKDVYAHWVPEDRILTTNLWSAELSKLAANAFLAQRISSVNAMSSLCEATGADVAQVSYAVGKDSRIGPKFLNASVGFGGSCFQKDILNLVYICECNGLPEVAEYWKQVIKINDYQKARFVNRVVSSMFNTVSNKKIAILGFAFKKDTGDTRETPAIDVCKGLLGDKARLSIYDPQVTEEQIQRDLTMNKFDWDHPVHLQPMSPTTVKQVSVVWDAYDAVKDAHGLCILTEWDEFKTLDYQRIYDNMQKPAYIFDGRNVVNVNKLREIGFIVYSIGKPLDPWLKDMPAVA
notes: full-length ORF (1443 bp, 480 residues, about 53 kDa) from cambial-region cDNA, N-terminal 6xHis tag (pDEST17) kept, E. coli BL21-AI; cDNA ends set by degenerate primers
In the case of B1, the Km (purified protein [1]) is reported as 67.3 ± 17.9 µM and the Km (purified protein [2]) is reported as 60.7 ± 8.5 µM.
